Data as given in the nanobody polyreactivity screen of Harvey et al. (2022).

Assay: yeast display, Sf9 membrane polyspecificity reagent, FACS + sequencing; frameworks hold sequencing errors
Summary of the method: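 Genes from sorted yeast were amplified by colony PCR, read by MiSeq 2 × 250 sequencing and filtered on CDR length. These cells carried a synthetic nanobody library in Saccharomyces cerevisiae BJ5465 and were sorted by FACS into low and high (top ~1%) gates on anti-HA and streptavidin fluorescence. Polyreactivity is labelled according to the gate of origin.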

Sequence	polyreactivity (PSR sort gate)
QVQLVESGGGLVQAGGSLRLSCAASGFIFAYYALGWYRQAPGKERELVAAITWSGGRTYYADSVKGRFTISRDNAKNTVYLQMNSLKPEDTAVYYCNAVRPSVDYGYWGQGTQVTVSS	high polyreactivity
QVQLVESGGGLVQAGGSLRLSCAASGFIFAYYAMGWYRQAPGKERELVAAISSGGRTYYADSVKGRFTISRDNAKNTVYLQMNSLKPEDTAVYYCAAYYRLDYDYWGQGTQVTVSS	high polyreactivity
QVQLVESGGGLVQAGGSLRLSCAASGFIFCTNAMGWYRQAPGKERELVAGISRTGGRTYYADSVKGRFTISRDNAKNTVYLQMNSLKPEDTAVYYCAAVARRHKVYEYDYWGQGTQVTVSS	high polyreactivity
QVQLVESGGGLVQAGGSLRLSCAASGFIFDDNAMGWYRQAPGKERELVATITWSTGSTYYADSVKGRFTISRDNAKNTVYLQMNSLKPEDTAVYYCAKESYFYRYYLAYDYWGQGTQVTVSS	low polyreactivity
QVQLVESGGGLVQAGGSLRLSCAASGFIFDFYTMGWYRQAPGKERELVAAITNGGSTYYADSVKGRFTISRDNAKNTVYLQMNSLKPEDTAVYYCAAYYRSRHHGYDSWGQGTQVTVSS	low polyreactivity
QVQLVESGGGLVQAGGSLRLSCAASGFIFDFYTMGWYSQAPGKERELVAAITNGGSTYYADSVKGRFTISRDNAKNTVYLQMNSLKPEDTAVYYCAAYYRSRHHGYDSWGQGTQVTVSS	low polyreactivity
QVQLVESGGGLVQAGGSLRLSCAASGFIFDGNAMGWYRPAPGKERELVAAIRSGGRTNYADSVNGRFTISRDNAKNTVYLQMNSLKPEDTAVYYCAARSIYPYYYRRDNRYYYWGQGTQVTVSS	high polyreactivity
QVQLVESGGGLVQAGGSLRLSCAASGFIFDGYAMGWYRQAPGKERELVAAISSSGGRTHYADSVKGRFTISRDNAKNTVYLQMNSLKPEDTAVYYCAVRFKWQGYNYWGQGTQVTVSS	high polyreactivity
QVQLVESGGGLVQAGGSLRLSCAASGFIFDINAMGWYRQAPGKERELVAAISYSGGSTYYADSVKGRFTISRDNAKNNVYLQMNSLKPEDTAVYYCAADSGPDSDEGDYWGQGTQVTVSS	low polyreactivity
QVQLVESGGGLVQAGGSLRLSCAASGFIFDINAMGWYRQAPGTERELVADIRGGGSTYYADSVKGRFTISRDNAKNTVYVQMNSLKPEDTAVYYCNALDSYRHRPFDYWGQGTQVTVSS	low polyreactivity
QVQLVESGGGLVQAGGSLRLSCAASGFIFDKYAMGWYRQAPGKERELVAAINWSGDSTYYADSVKGRFTISRDNAKNTVYLQMNSLKPEDTAVYYCNARRPRFRYDYWGQGTQVTVSS	high polyreactivity
QVQLVESGGGLVQAGGSLRLSCAASGFIFDKYSMGWYRQAPGKERELVAAITDTGGNTYYADSVKGRFTISRDNAKNTVYLQMNILKPEDTAVYYSNADYTDYQTYSATTYEYWGQGTQVTVSS	low polyreactivity
QVQLVESGGGLVQAGGSLRLSCAASGFIFDPNAMGWYRLAPGKERELVAAISSSGGRTYYADSVKGRFTISRDNAKNTVYLQMNSLKPEDTAVYYCNARDYSGFQTGASAAFDYWGQGTQVTVSS	low polyreactivity
QVQLVESGGGLVQAGGSLRLSCAASGFIFDPYAMGWYRPAPGKERELVAVITYSAGSTYADSVNGRFTISRDNAKNTVYLQMNSLKPEDTAVYYCAKRWWYNVPLGVLYDYWGQGTQVTVSS	low polyreactivity
QVQLVESGGGLVQAGGSLRLSCAASGFIFDPYAMGWYRQAPGKERELVASINTRGDRTSYADSVKGRFTISRDNAKNTVYLQMNSLKPEDTAVYYCNADAVDQVGPDDDYWGQGTQVTVSS	low polyreactivity
QVQLVESGGGLVQAGGSLRLSCAASGFIFDRNTMGWYRQAPGKERELVATISSTGTTNYADSVKGRFTISRDNAKNTVYLQMNSLKPEDTAVYYCNAYPRWRYVSYYRSYRYDYWGQGTQVTVSS	high polyreactivity
QVQLVESGGGLVQAGGSLRLSCAASGFIFDTNAMGLYRQAPGKERELVATISTSGGSTSYADSVKGRFTISRDNAKNTVYLQMNSLTPEDTAVYYCAARWYFPDRVKYDYWGQGTQVTVSS	low polyreactivity
QVQLVESGGGLVQAGGSLRLSCAASGFIFDTNAMGWSRQAPGKDRELVARISSSAGSTYYAVSVKGRFTISRDNAKNTVYLLMNSLKPEDTAVYYCNADTGLGSLDFDKRDYWGQGTQVTVSS	low polyreactivity
QVQLVESGGGLVQAGGSLRLSCAASGFIFDTYAMGWYRQAPGKERELVAAISWTGTDTYYADSVKGRFTISRDNAKNTVYLQMNSLKPEDTAVYYCATDYGWLYINSIWEYDYWGQGTQVTVSS	high polyreactivity
QVQLVESGGGLVQAGGSLRLSCAASGFIFDWNTMGWYRQAPGKERELVAAITESSGSTYYADSVKGRFTISRDNAKNTVYLQMNSLKPEDTAVYYCAAELDVYVSIGSRFHFDYWGQGTQVTVSS	low polyreactivity

Sequence	polyreactivity (PSR sort gate)
QVQLVESGGGLVQAGGSLRLSCAASGFIFDYNAMGWYRQAPGKERELVAAITSGGGSTYYADSVKGRFTISRDNAKNTVYLQMNSLKPEDTAVYYCNAVPSQHDEFDYWGQGTQVTVSS	low polyreactivity
QVQLVESGGGLVQAGGSLRLSCAASGFIFDYYAMGWYRQAPGKERELVAAITRDGGGTYYADSVKGRFTISRDNAKNTVYLQMNSLKPEDTAVYYCAARRAVRLYYWGQGTQVTVSS	high polyreactivity
QVQLVESGGGLVQAGGSLRLSCAASGFIFDYYAMGWYRQAPGKERELVAAITSRSGSTYYADSVKGRFTISRDNAKNTVYLQMNSLKPEDTAVYYCARRFKYGSTAWRFYYWGQGTQVTVSS	high polyreactivity
QVQLVESGGGLVQAGGSLRLSCAASGFIFDYYAMGWYRQAPGKERELVAAITWSGGSTYYADSVKGRFTISRDNAKYTVFLQMNSLKPEDTAVYYCNAYNWTYCEYEYWGQGTQVTVSS	high polyreactivity
QVQLVESGGGLVQAGGSLRLSCAASGFIFDYYAMGWYRQAPGTEREFVAAITWDGGSTYYADSVKGRFTISRDNAKNTVYLQMNSLKTEDTAVYYCAAETWGEYGYWGQGTQVTVSS	low polyreactivity
QVQLVESGGGLVQAGGSLRLSCAASGFIFDYYAMGWYRQAPVKERELVAAISWSGGSTYYADSVKGRFTISRDNAKNTVYLQMNSLKPEDTAVYYCNSYYQGYWGDFDYWGQGTQVTVSS	high polyreactivity
QVQLVESGGGLVQAGGSLRLSCAASGFIFDYYTMGWYRQAPGKERELVASIRSSGSSTYYADSVKGRFTISRDNAKNTVYLQMNSLKPEDTAVYYCARRYVVNRDWGDDYWGQGTQVTVSS	high polyreactivity
QVQLVESGGGLVQAGGSLRLSCAASGFIFEHYAMGWYRQAPGKERELVAAISRTGGRTYYADSVKGRFTISRDNAKNTVYLQMNSLKPEDTAVYYCAATAYSRLGVSSDYWGQGTQVTVSS	high polyreactivity
QVQLVESGGGLVQAGGSLRLSCAASGFIFELYAMGWYRQAPGKERDLVAVISYDGGSTYYADSVKGRFTISRDNAKNTVYLQMNSLKPEDTAVYYCNTYAGLVSPSDLYDYWGQGTQVTVSS	low polyreactivity
QVQLVESGGGLVQAGGSLRLSCAASGFIFEMYAMGWYRQAHGKERELVAAISSSGDSTYYADSVKGRFTISRDNEKNTVYLQMNSLIPEDNAVYYCATECGYALYDYWGQGTQVTVSS	low polyreactivity
QVQLVESGGGLVQAGGSLRLSCAASGFIFERYTMGWYRHAPGKERELVAAISDSGGSTYYADSVKGRFTISRDNAKNTVYLQMNSLKPEDTAVYYCAAKFRNYRPSKYYYWGQGTQVTVSS	high polyreactivity
QVQLVESGGGLVQAGGSLRLSCAASGFIFEYNAMGWYRQAPGKERELVAAITSSGGSTYYADSVKGRFTISRDNAKNTVYLQMNSLKPEDTAVYYCARVRRSAYYKDYYYWGQGTQVTVSS	high polyreactivity
QVQLVESGGGLVQAGGSLRLSCAASGFIFFPYVMGWYRQAPGKEREFVAAITGDGGSTYYADSVKGRFTISRDNAKNTVYLQMNSLKPEDTAVYYCAAEFGLWYWDWAASEDYWGQGTQVTVSS	high polyreactivity
QVQLVESGGGLVQAGGSLRLSCAASGFIFFTNAMGWYRQAPGKERELVAAITDDGSTYYADSVKGRFTISRDNAKNTVYLQMNSLKPEDTAVYYCNVVLQDPSYSWFWYDYDYWGQGTQVTVSS	high polyreactivity
QVQLVESGGGLVQAGGSLRLSCAASGFIFFYYAMGWYRQAPGKERELVAAISASGGSTYYADSVKGRFTISRDNAKNTVYLQLNSLKPEDTAVYYCAARYRKAESARWEYGYWGQGTQVTVSS	high polyreactivity
QVQLVESGGGLVQAGGSLRLSCAASGFIFGAYTMGWYRQAPGKESELVADISRRGGTTYYADSVKGRFTISRDNAKNTVYLQMNSLKPEDTAVYYCANVANFWYNTTLRGYYYWGQGTQVSVSS	high polyreactivity
QVQLVESGGGLVQAGGSLRLSCAASGFIFGDNAMGWYRQAPGKERELVAAITYSGGSTYYADSVKGRFTISRDYAKNTVYLQMNSLKPEDTAVYDCAASNQWSSTYLTYGYYYWGQGTQVTVSS	low polyreactivity
QVQLVESGGGLVQAGGSLRLSCAASGFIFGGYAMVWYRQAPGKERELVAAISSSGGSTYYADSVTGRFTISRDNAKNTVSLQMNSLKPEDTAVYYCAIVGWSRRYYYWGQGTQVTLSS	high polyreactivity
QVQLVESGGGLVQAGGSLRLSCAASGFIFGHYAMGWYRQAPGKERELVAAIRSRGGDRTYADSVKGRFTISRDNAKNTVYLQMNSLKPEDTAVYYCAADGPGTSEDDYWGQGTQVTVSS	high polyreactivity
QVQLVESGGGLVQAGGSLRLSCAASGFIFGINAMGWYRQAPGKERELVATITSGGGTNYADSVKGRFTISRDNAKNTVYLQMNSLKPEDTAVYYCAKAPDTQTSWSRQEGNYWGQGTQVTVSS	low polyreactivity
